Target: cynomolgus PSMA, full-length, on CHO cells (cynomolgus, UniProt A0A2K5VNZ0 1-750)
Assay: cell-based or functional assay

Binder	His-ZAP cell killing, cyno PSMA Average EC50 [pM]
1.1-6GS-2.1 (bispecific antibody) EVQLLESGGGLVQPGGSLRLSCAASGFSFSSYAMSWVRQAPGKGLEWVSSIGENDGTTDYADSVKGRFTISRDNSKSMLYLQMNSLRVEDTAVYYCVKDGVHWGQGTLVTVSSGGGGSGGGGSGGGGSGGGGSGGGGSGGGGSEVQLVESGGGVVQPGRSLRLSCAASGFSFSGYGMHWVRQAPGKGLEWVAYISYDGSNKYYADSVKGRFTISRDNSKNTLYLQMNSLRAEDTAVYYCAKDPAWGLRLGESSSYDFDIWGQGTMVTVSS	12
1.11-6GS-2.15 (bispecific antibody) EVQLLESGGGLVQPGGSLRLSCAASGFSFSSYALSWVRQAPGKGLEWVSSIGENNDTTDYADNVKGRFTISRDNSKNTLYLQMNSLRVEDTAVYYCVKDGVHWGQGTLVTVSSGGGGSGGGGSGGGGSGGGGSGGGGSGGGGSEVQLVESGGGVVQPGRSLRLSCAASGFSFSGYGLHWVRQAPGKGLEWVAYISYDKSNKYYADKVKGRFTISRDNSKNTLYLQMNSLRAEDTAVYYCAKDPAWGLRLGESSSYDFDIWGQGTMVTVSS	9
1.1-6GS-2.22 (bispecific antibody) EVQLLESGGGLVQPGGSLRLSCAASGFSFSSYAMSWVRQAPGKGLEWVSSIGENDGTTDYADSVKGRFTISRDNSKSMLYLQMNSLRVEDTAVYYCVKDGVHWGQGTLVTVSSGGGGSGGGGSGGGGSGGGGSGGGGSGGGGSEVQLVESGGGVVQPGRSLRLSCAASGFSFSGYGTHWVRQAPGKGLEWVAYISYDGSNKYYAAPVKGRFTISRDNSKNTLYLQMNSLRAEDTAVYYCAKDAAWGLRLGESSSYDFDIWGQGTMVTVSS	7.8
1.18-6GS-2.15 (bispecific antibody) EVQLLESGGGLVQPGGSLRLSCAASGFSFSSYALSWVRQAPGKGLEWVSSIGENNATTDYAASVKGRFTISRDNSKNTLYLQMNSLRVEDTAVYYCVKDGVHWGQGTLVTVSSGGGGSGGGGSGGGGSGGGGSGGGGSGGGGSEVQLVESGGGVVQPGRSLRLSCAASGFSFSGYGLHWVRQAPGKGLEWVAYISYDKSNKYYADKVKGRFTISRDNSKNTLYLQMNSLRAEDTAVYYCAKDPAWGLRLGESSSYDFDIWGQGTMVTVSS	10
1.16-6GS-2.15 (bispecific antibody) EVQLLESGGGLVQPGGSLRLSCAASGFSFSSYALSWVRQAPGKGLEWVSSIGENNHTTDYADTVKGRFTISRDNSKNTLYLQMNSLRVEDTAVYYCVKDGVHWGQGTLVTVSSGGGGSGGGGSGGGGSGGGGSGGGGSGGGGSEVQLVESGGGVVQPGRSLRLSCAASGFSFSGYGLHWVRQAPGKGLEWVAYISYDKSNKYYADKVKGRFTISRDNSKNTLYLQMNSLRAEDTAVYYCAKDPAWGLRLGESSSYDFDIWGQGTMVTVSS	11
1.1-6GS-2.15 (bispecific antibody) EVQLLESGGGLVQPGGSLRLSCAASGFSFSSYAMSWVRQAPGKGLEWVSSIGENDGTTDYADSVKGRFTISRDNSKSMLYLQMNSLRVEDTAVYYCVKDGVHWGQGTLVTVSSGGGGSGGGGSGGGGSGGGGSGGGGSGGGGSEVQLVESGGGVVQPGRSLRLSCAASGFSFSGYGLHWVRQAPGKGLEWVAYISYDKSNKYYADKVKGRFTISRDNSKNTLYLQMNSLRAEDTAVYYCAKDPAWGLRLGESSSYDFDIWGQGTMVTVSS	8.6
1.1-6GS-2.17 (bispecific antibody) EVQLLESGGGLVQPGGSLRLSCAASGFSFSSYAMSWVRQAPGKGLEWVSSIGENDGTTDYADSVKGRFTISRDNSKSMLYLQMNSLRVEDTAVYYCVKDGVHWGQGTLVTVSSGGGGSGGGGSGGGGSGGGGSGGGGSGGGGSEVQLVESGGGVVQPGRSLRLSCAASGFSFSGYGMHWVRQAPGKGLEWVAYISYDASNKYYADNVKGRFTISRDNSKNTLYLQMNSLRAEDTAVYYCAKDPAWGLRLGESSSYDFDIWGQGTMVTVSS	11

Target: T1, human prostate specific membrane antigen (PSMA), full-length, on cells (human, UniProt Q04609 1-750)
Assay: cell-based or functional assay

T1 sequence (Q04609 whole entry): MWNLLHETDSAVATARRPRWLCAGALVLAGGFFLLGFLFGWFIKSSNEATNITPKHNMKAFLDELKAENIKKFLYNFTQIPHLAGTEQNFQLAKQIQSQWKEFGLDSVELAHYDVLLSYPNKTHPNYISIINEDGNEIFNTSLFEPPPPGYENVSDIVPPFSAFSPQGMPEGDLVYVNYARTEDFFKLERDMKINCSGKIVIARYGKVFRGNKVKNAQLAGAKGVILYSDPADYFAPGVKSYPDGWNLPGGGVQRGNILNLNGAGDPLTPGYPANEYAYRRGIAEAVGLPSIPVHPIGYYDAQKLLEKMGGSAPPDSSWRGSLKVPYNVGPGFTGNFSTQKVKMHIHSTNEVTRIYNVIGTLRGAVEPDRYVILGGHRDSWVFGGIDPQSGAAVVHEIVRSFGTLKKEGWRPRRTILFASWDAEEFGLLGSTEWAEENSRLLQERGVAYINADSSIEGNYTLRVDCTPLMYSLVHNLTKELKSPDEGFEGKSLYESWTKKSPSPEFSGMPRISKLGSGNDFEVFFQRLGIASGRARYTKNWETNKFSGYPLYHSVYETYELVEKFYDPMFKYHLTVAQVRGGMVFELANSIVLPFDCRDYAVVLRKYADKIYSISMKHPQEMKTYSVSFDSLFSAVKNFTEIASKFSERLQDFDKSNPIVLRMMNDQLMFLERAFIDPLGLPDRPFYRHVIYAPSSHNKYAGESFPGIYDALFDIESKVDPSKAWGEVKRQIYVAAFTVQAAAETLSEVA

Binder	IC50 Toxin (nM), DU145 PSMA cells, 48 h [nM]	Mean IC50, cytotoxicity on DU145 PSMA cells, 48 h [pM]	Mean Max % Cell kill, DU145 PSMA cells, 48 h [%]
HiPEG A-1-B-His6 val-cit-PAB-MMAE (bispecific antibody, HiPEG val-cit-PAB-MMAE attached via the C-terminal His6-tag, DAR 1) EVQLVESGGGVVQPGRSLRLSCAASGFSFSGYGMHWVRQAPGKGLEWVAYISYDGSNKYYADSVKGRFTISRDNSKNTLYLQMNSLRAEDTAVYYCAKDPAWGLRLGESSSYDFDIWGQGTMVTVSSGGGGSGGGGSEVQLLESGGGLVQPGGSLRLSCAASGFSFSSYAMSWVRQAPGKGLEWVSSIGENDGTTDYADSVKGRFTISRDNSKSMLYLQMNSLRVEDTAVYYCVKDGVHWGQGTLVTVSS	0.67	670	75
HiPEG A-2-A-His6 val-cit-PAB-MMAE (VHH, HiPEG val-cit-PAB-MMAE attached via the C-terminal His6-tag, DAR 1) EVQLVESGGGVVQPGRSLRLSCAASGFSFSGYGMHWVRQAPGKGLEWVAYISYDGSNKYYADSVKGRFTISRDNSKNTLYLQMNSLRAEDTAVYYCAKDPAWGLRLGESSSYDFDIWGQGTMVTVSSGGGGSGGGGSGGGGSGGGGSGGGGSGGGGSEVQLVESGGGVVQPGRSLRLSCAASGFSFSGYGMHWVRQAPGKGLEWVAYISYDGSNKYYADSVKGRFTISRDNSKNTLYLQMNSLRAEDTAVYYCAKDPAWGLRLGESSSYDFDIWGQGTMVTVSSAAAHHHHHH	0.32	320	57
HiPEG A-2-B-His6 val-cit-PAB-MMAE (bispecific antibody, HiPEG val-cit-PAB-MMAE attached via the C-terminal His6-tag, DAR 1) EVQLVESGGGVVQPGRSLRLSCAASGFSFSGYGMHWVRQAPGKGLEWVAYISYDGSNKYYADSVKGRFTISRDNSKNTLYLQMNSLRAEDTAVYYCAKDPAWGLRLGESSSYDFDIWGQGTMVTVSSGGGGSGGGGSGGGGSGGGGSGGGGSGGGGSEVQLLESGGGLVQPGGSLRLSCAASGFSFSSYAMSWVRQAPGKGLEWVSSIGENDGTTDYADSVKGRFTISRDNSKSMLYLQMNSLRVEDTAVYYCVKDGVHWGQGTLVTVSSAAAHHHHHH	0.37	370	78
HiPEG C-2-C-His6 val-cit-PAB-MMAE (VHH, HiPEG val-cit-PAB-MMAE attached via the C-terminal His6-tag, DAR 1) EVQLVESGGGVVQPGRSLRLSCAASGFPLISYGMHWVRQAPGKGLEWVAFMTYDGSNRYYADSVKGRFTISRDNSKNTLYLQMNSLRDEDTALYYCARDRIVGGRVPDAFDIWGQGTMVTVSSGGGGSGGGGSGGGGSGGGGSGGGGSGGGGSEVQLVESGGGVVQPGRSLRLSCAASGFPLISYGMHWVRQAPGKGLEWVAFMTYDGSNRYYADSVKGRFTISRDNSKNTLYLQMNSLRDEDTALYYCARDRIVGGRVPDAFDIWGQGTMVTVSS	4.54	4500	69
HiPEG B-2-B-His6 val-cit-PAB-MMAE (VHH, HiPEG val-cit-PAB-MMAE attached via the C-terminal His6-tag, DAR 0.7) EVQLLESGGGLVQPGGSLRLSCAASGFSFSSYAMSWVRQAPGKGLEWVSSIGENDGTTDYADSVKGRFTISRDNSKSMLYLQMNSLRVEDTAVYYCVKDGVHWGQGTLVTVSSGGGGSGGGGSGGGGSGGGGSGGGGSGGGGSEVQLLESGGGLVQPGGSLRLSCAASGFSFSSYAMSWVRQAPGKGLEWVSSIGENDGTTDYADSVKGRFTISRDNSKSMLYLQMNSLRVEDTAVYYCVKDGVHWGQGTLVTVSS	12.6	18000	–
HiPEG C-His6 val-cit-PAB-MMAE (VHH, HiPEG val-cit-PAB-MMAE attached via the C-terminal His6-tag, DAR 1) VHH: EVQLVESGGGVVQPGRSLRLSCAASGFPLISYGMHWVRQAPGKGLEWVAFMTYDGSNRYYADSVKGRFTISRDNSKNTLYLQMNSLRDEDTALYYCARDRIVGGRVPDAFDIWGQGTMVTVSS	5.21	5200	59

Target: T2, recombinant human PSMA (R&D, cat. no. 4234-ZN) (human, UniProt Q04609 44-750)
T2 construct: Bought protein; also called rhPSMA; Recombinant PMSA
Assay: Octet RED384 BLI, PSMA on sensor, VH purified from periplasmic extracts

T2 sequence (Q04609 44-750 limits assumed): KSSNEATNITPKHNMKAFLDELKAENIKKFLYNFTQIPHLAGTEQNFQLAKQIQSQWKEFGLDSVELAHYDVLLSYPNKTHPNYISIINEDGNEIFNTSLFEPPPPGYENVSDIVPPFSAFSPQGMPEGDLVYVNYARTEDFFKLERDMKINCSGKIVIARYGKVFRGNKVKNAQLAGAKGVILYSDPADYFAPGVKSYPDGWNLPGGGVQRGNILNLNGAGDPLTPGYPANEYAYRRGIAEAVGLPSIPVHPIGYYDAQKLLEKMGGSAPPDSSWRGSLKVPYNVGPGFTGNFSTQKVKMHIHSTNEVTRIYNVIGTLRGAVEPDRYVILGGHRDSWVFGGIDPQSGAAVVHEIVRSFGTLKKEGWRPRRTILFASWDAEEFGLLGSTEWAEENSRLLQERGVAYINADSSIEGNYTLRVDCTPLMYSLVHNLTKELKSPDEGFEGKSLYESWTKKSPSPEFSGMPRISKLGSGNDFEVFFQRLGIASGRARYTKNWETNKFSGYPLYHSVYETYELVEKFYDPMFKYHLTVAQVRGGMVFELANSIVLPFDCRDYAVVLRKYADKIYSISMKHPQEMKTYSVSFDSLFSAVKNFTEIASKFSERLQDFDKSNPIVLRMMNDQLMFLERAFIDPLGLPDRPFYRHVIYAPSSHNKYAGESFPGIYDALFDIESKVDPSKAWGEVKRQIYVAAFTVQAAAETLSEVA

Binder	Kd [pM]	koff [s⁻¹]
single VH domain antibody 6.1 (VHH, Human single VH domain antibody (Humabody); purified via the C-terminal His-tag, residues not tied) VHH: QVQLQESGPGLVKPSQTLSLTCTVSGGSISNSGYYWSWVRQHPGKDLEWIGFIYYNGSIHYNPSLKSRVIISVDTSKNQFSLKMNSVTAADTAVYYCARDGDDYGDYLRGQGTLVTVSS	16000	0.00365
single VH domain antibody 14.1 (VHH) VHH: EVQLVESGGEVKKPGASVKVSCKASGYTFTSYDINWVRQATGQGLEWMGWMNPNSGNTGYAQKFQGRVTMTRNTSISTAYMELSSLRSEDTAVYYCARGNGPGITGTTDYWGQGTLVTVSS	17000	0.0011
single VH domain antibody 12.1 (VHH, Human single VH domain antibody (Humabody); purified via the C-terminal His-tag, residues not tied) VHH: QVQLVESGGGVVQPGRSLRLSCAASGFTFSNFGMHWARQAPGKGLEWVAVISYDGNSKYYADTVKGRFTISRDNSKNTLYLEMNSLRADDTAVYYCAKGLWPPMDVRGQGTTVTVSS	3900	0.00137
single VH domain antibody 10.1 (VHH, Human single VH domain antibody (Humabody); purified via the C-terminal His-tag, residues not tied) VHH: QVQLVESGGGLVQPGGSLRLSCAASGFTFSSYGMHWVRQAPGKGLEWVAFMSYDGSNKYYVDSVKGRFTISRDNSKNTLYLQMNSLRAEDTAVYYCAKGDYDFWSGYPDYDMDVWGQGTTVTVSS	95000	0.00185
single VH domain antibody 13.1 (VHH, Human single VH domain antibody (Humabody); purified via the C-terminal His-tag, residues not tied) VHH: EVQLVESGGGSVQPGGSLRLSCAASGFTFSDYWMTWVRQVPGKGLEWVANIKQDGSEKYYVDSVKGRFTISRDNAKNSLYLQMNSLRAEDTAVYYCARDRGGAVALYHNGMDMGGQGTTVTVSS	4200	0.0006
single VH domain antibody 11.1 (VHH, Human single VH domain antibody (Humabody); purified via the C-terminal His-tag, residues not tied) VHH: EVQLVESGGGLVKPGGSLRLSCAASGFNLISYGMYWVRQAPGKGLEWVAVISYDGSNKNYADSVKGRFTISRDNSKNTLFLQMNSLRVEDTAVYYCAKGGNALYSSGWPDDGFDIRGQGTMVTVSS	26000	0.00149
single VH domain antibody 4.1 (VHH, Human single VH domain antibody (Humabody); purified via the C-terminal His-tag, residues not tied) VHH: QVQLVESGGGVVQPGRSLRLSCVASGFPFISYGMHWVRQAPGKGREWVAVISYDGSNRYYADSVKGRFTISRDNSKNTLYLQMNSLRPEDTAVYYCAKERIFGVLTPDDFDIWGQGTTVTVSS	45000	0.014

Target: T1, human prostate specific membrane …
Assay: cell-based or functional assay
Remark: another data set of the same source

Binder	IC50 (nM), cytotoxicity on DU145 PSMA cells, 72 h [nM]	IC50 (toxin) nM, DU145 PSMA cells, 72 h [nM]
HiPEG A-2-A-His6 val-cit-PAB-MMAE (VHH, HiPEG val-cit-PAB-MMAE attached via the C-terminal His6-tag, DAR 1) EVQLVESGGGVVQPGRSLRLSCAASGFSFSGYGMHWVRQAPGKGLEWVAYISYDGSNKYYADSVKGRFTISRDNSKNTLYLQMNSLRAEDTAVYYCAKDPAWGLRLGESSSYDFDIWGQGTMVTVSSGGGGSGGGGSGGGGSGGGGSGGGGSGGGGSEVQLVESGGGVVQPGRSLRLSCAASGFSFSGYGMHWVRQAPGKGLEWVAYISYDGSNKYYADSVKGRFTISRDNSKNTLYLQMNSLRAEDTAVYYCAKDPAWGLRLGESSSYDFDIWGQGTMVTVSSAAAHHHHHH	0.19	0.19
HiPEG A-2-B-His6 val-cit-PAB-MMAE (bispecific antibody, HiPEG val-cit-PAB-MMAE attached via the C-terminal His6-tag, DAR 1) EVQLVESGGGVVQPGRSLRLSCAASGFSFSGYGMHWVRQAPGKGLEWVAYISYDGSNKYYADSVKGRFTISRDNSKNTLYLQMNSLRAEDTAVYYCAKDPAWGLRLGESSSYDFDIWGQGTMVTVSSGGGGSGGGGSGGGGSGGGGSGGGGSGGGGSEVQLLESGGGLVQPGGSLRLSCAASGFSFSSYAMSWVRQAPGKGLEWVSSIGENDGTTDYADSVKGRFTISRDNSKSMLYLQMNSLRVEDTAVYYCVKDGVHWGQGTLVTVSSAAAHHHHHH	0.29	0.29
HiPEG B-2-B-His6 val-cit-PAB-MMAE (VHH, HiPEG val-cit-PAB-MMAE attached via the C-terminal His6-tag, DAR 0.7) EVQLLESGGGLVQPGGSLRLSCAASGFSFSSYAMSWVRQAPGKGLEWVSSIGENDGTTDYADSVKGRFTISRDNSKSMLYLQMNSLRVEDTAVYYCVKDGVHWGQGTLVTVSSGGGGSGGGGSGGGGSGGGGSGGGGSGGGGSEVQLLESGGGLVQPGGSLRLSCAASGFSFSSYAMSWVRQAPGKGLEWVSSIGENDGTTDYADSVKGRFTISRDNSKSMLYLQMNSLRVEDTAVYYCVKDGVHWGQGTLVTVSS	21	14.7

— US20200131274A1 (CRESCENDO BIOLOGICS, published 2020)
